What was measured:
[1] = target: VPS29 (as expressed for the complexes, pMR101A‐VPS29) (UniProt Q9UBQ0); assay: crystal structure
VPS29–VPS35C subcomplex = VPS29–VPS35C subcomplex (UniProt Q96QK1;Q9UBQ0); assay: crystal structure

- binding result [1]: binds
- binding result (VPS29–VPS35C subcomplex): binds
Binder: SNIFDDPLNAFGGQ [peptide FAM21‐R21 (1328-SNIFDDPLNAFGGQ-1341)]
